Substrate in data set [1]: C[S+](C)(=O)CCC(=O)[O-]
As to the kind of experiment: HPLC of acrylate, initial rates, non-linear fit. It counts as biochemical, Ruegeria pomeroyi. The following applies: pH 8, 30 °C. An excerpt: HPLC of acrylate, initial rates, non-linear fit on DddW | Only the catalytic efficiency of DddW for DMSOP was similar to that for DMSP

Substrate in data set [2]: C[S+](C)(=O)CCC(=O)[O-]
As to the kind of experiment: HPLC of acrylate, initial rates, non-linear fit. The data set is classed as biochemical, Alcaligenes faecalis. To be noted: pH 8, 30 °C.

Substrate in data set [3]: C[S+](C)(=O)CCC(=O)[O-]
The data set can be described thus: HPLC of acrylate, initial rates, non-linear fit. The data set is classed as biochemical, Emiliania huxleyi. The following applies: pH 8, 30 °C.

Substrate in data set [4]: C[S+](C)(=O)CCC(=O)[O-]
The data set can be described thus: HPLC of acrylate, initial rates, non-linear fit. It counts as biochemical, Candidatus Pelagibacter communis. To be noted: pH 8, 30 °C.

Substrate in data set [5]: C[S+](C)(=O)CCC(=O)[O-]
As to the kind of experiment: HPLC of DMSO, initial rates, non-linear fit. It counts as biochemical, Psychrobacter sp. To be noted: pH 8, 30 °C, CoA, ATP, Mg2+ present.

B1: DddW (Ruegeria pomeroyi DSS-3) (protein)
chain: MTAMLDSFATDLTAATSLHQPGNLPHPPHAIDAENVPLSGGTDPTYGEVRWRTLINGTEAAPRDMVLGIAEFGPGHQLRPHRHTPPEFYLGLEGSGIVTIDGVPHEIRAGVALYIPGDAEHGTVAGPEGLRFAYGFASASFEAIEYRFTASA
notes: pET-22b, C-terminal His tag, E. coli BL21(DE3)
In general, Km refers to the concentration of substrate that gives half-maximal velocity. In general, kcat refers to the number of substrate molecules converted per active site and unit of time at saturation. With B1, in data set [1], the Km is 11.2 ± 1.6 mM and the turnover number (kcat) worked out at 26.7 ± 3.9 s⁻¹.

B2: A. faecalis DddY (Alcaligenes faecalis) (protein)
chain: AQFQCQDDVKPAAISAEEQKLVDQFWAESLVYLEQYLKALETPTGQCKDSAQATIQTYHSETGKAQTRCIMKYRDMELLAKHLKAVLAEPDKAKACFDPQKNYKEFTLYTPSSQVQQLSATSTWINRPLLTDYYTKMGGAIGAAGLELNENFLAITSRTDTTAHWTRDVSIKGLPTLWSSVGWVPLYAENPAAGSDRFRGGYLYAELMGPWGNLRIKEINGEKVGAEIGMTVQLFNTSYPFHYHHPQETYMTLTKPQCVDQNKYMVMHWDSDQFTQTRSDKGWTVEIDGSKERWKKWFANQDVNKEWLTYFERNAIHAFHALEGCNQTIQNSGLVAVWARSTSQDNEQFTQLCRPASGPDGVKRMRPGQKTVCDVRDWKP
notes: pET-22b, C-terminal His tag, E. coli BL21(DE3); Ni-NTA and gel filtration
Take B2: in data set [2], the Km worked out at 41.0 mM and the kcat turned out to be 26.5 s⁻¹.

B3: Alma1 (Emiliania huxleyi) (protein)
chain: MGNCTSHPHHEPQVHFDTVDGMATVKAFAGIRQVTMGVLRIDYEYQTNLGDILDPRSFDFRIISATAEGLTFAKAKAGDKLDATGKELLERAVRQLIDNGADFIVGDCGFLVYWQVMVRDYAQDYAQKKYGRKCPVMMSSLVLALPLLATIPSGGQIGILTASEKSLQAVQKKLPIVIEDHQKEDGGQRSRSVPAAEDPSGIMINFSDPRFKVVGLDEVKDFKHALDAQGADAVNDRRDIAVQIAAYCQKVQEKNPQIAAWLIECTEAGGFAWAIKVGTGLPVWDPITLGRFLSLGFTANVPNVALTLGQHGENPLDPSATTAGKGRCTGEEPGQIHALGAEFQAIREGTL
notes: as for B2
Regarding B3, in data set [3], the Km worked out at 8.8 ± 1.1 mM and the catalytic constant (kcat) is 0.2 ± 0.01 s⁻¹.

B4: DddK (Candidatus Pelagibacter ubique HTCC1062) (protein)
chain: MIFVKNLASVLSQEWSSTEKYPGVRWKFLIDADFDGSSGLSLGFAEIAPGGDLTLHYHSPAEIYVVTNGKGILNKSGKLETIKKGDVVYIAGNAEHALKNNGKETLEFYWIFPTDRFSEVEYFPAKQKSG
notes: pET-22b, C-terminal His tag, E. coli BL21(DE3); Ni-NTA and gel filtration; dimer in asymmetric unit; Mn2+
Regarding B4, in data set [4], the Km was 24.1 ± 3.4 mM and the kcat worked out at 14.8 ± 0.9 s⁻¹.

B5: DddX (Psychrobacter sp.) (protein)
chain: LTGQIIEYTIKIQTIYTGNFKHKNGFLKMIERGIAMKKENLKILAKKAQTIAIVGANYRFATRVLLENLDKMDFTGTIYLVNPRYENIDGVRCYQSLLEIEDTIDVVVGLVNPQLMIQVASNASKINAKVLVIPGGGYGESGVEGQNIQNAILERAADSGMRIVGPNCMGYLNMHAQFTPYIGTLHRPLRPIKKGPVSIISQSGSVNDAFIASKLGISKIYSTGNEADVQMHDYLNLLAEDPETSVIILYIEAIRNHLSFLRALDLCSKNKKPVIAIKVGRTIKSAAVANAHSGALAGDYEIEKLFLEGHGVLFVEDIDQAVAVALLLSQPYLPTVNTVAALTVSGGQAGILLDLAEDYGVDFPDFSAVTNYEIASKLPELGGLSNPLDIWGKSSKDFSEVSNICLSSIVKDADIGIITVAIDAPIGQGDHEFDFTSIPAKDLASLRGNSDKPFLYFSHIQTEFDPRVESILDEAGIAVIQGSRNALVACRALFKYKEFLEKNNHTPIYSVEDLSIQKGLKLLHDNEGRKLLDESGFVSPREQVVTSLQEGVDYAESIGYPVVLKAQGLAHKTDVGGVALNIKSAAKLKKAWGKMEHLNSPYYLIQEMVTDGFETILAYRTDMNYGPVVIFGLGGIYTELFNEVVLAVPPITHKKAEQMVKSIPMLWKSIEGYRGNPALDLEALTASIVQMGETAMEKYEEIVEFEINPLSVRVKGVVALDVLASVKTTAAKEADAEEADVKKCSELV
notes: as for B2
In the case of B5, the Michaelis-Menten constant (Km) in data set [5] is recorded as 1 ± 0.2 mM.

The values are drawn from PMC10686828, “DMSOP-cleaving enzymes are diverse and widely distributed in marine microorganisms” (Nature Microbiology, 2023).
